Assay results reported in publication PMC8091058, “Distinct intramolecular interactions regulate autoinhibition of vinculin binding in αT-catenin and αE-catenin” (The Journal of Biological Chemistry, 2021).

What was measured:
Assay in all cases: ITC; vinculin D1 injected into αT-catenin or αE-catenin fragment (or αT-catenin head–β-catenin complex) in the cell; 25 °C; 20 mM Hepes pH 8.0, 150 mM NaCl, 1 mM TCEP
Conditions in all cases: both partners purified
[1] = molecular target: T1, αT-catenin head region (aa 1–659) (Mus musculus, UniProt Q65CL1 1-659)
T1 construct: αT-catenin, Mus musculus, head region (N- and M-domains), aa 1-659; in pGEX-TEV; also called αT-catenin head (1–659); αT-catenin N1-M3 (aa 1–659); source: E. coli BL21-Gold, purified (glutathione-agarose, TEV cleavage, Mono Q or Mono S, S200)
T1 sequence (looked up): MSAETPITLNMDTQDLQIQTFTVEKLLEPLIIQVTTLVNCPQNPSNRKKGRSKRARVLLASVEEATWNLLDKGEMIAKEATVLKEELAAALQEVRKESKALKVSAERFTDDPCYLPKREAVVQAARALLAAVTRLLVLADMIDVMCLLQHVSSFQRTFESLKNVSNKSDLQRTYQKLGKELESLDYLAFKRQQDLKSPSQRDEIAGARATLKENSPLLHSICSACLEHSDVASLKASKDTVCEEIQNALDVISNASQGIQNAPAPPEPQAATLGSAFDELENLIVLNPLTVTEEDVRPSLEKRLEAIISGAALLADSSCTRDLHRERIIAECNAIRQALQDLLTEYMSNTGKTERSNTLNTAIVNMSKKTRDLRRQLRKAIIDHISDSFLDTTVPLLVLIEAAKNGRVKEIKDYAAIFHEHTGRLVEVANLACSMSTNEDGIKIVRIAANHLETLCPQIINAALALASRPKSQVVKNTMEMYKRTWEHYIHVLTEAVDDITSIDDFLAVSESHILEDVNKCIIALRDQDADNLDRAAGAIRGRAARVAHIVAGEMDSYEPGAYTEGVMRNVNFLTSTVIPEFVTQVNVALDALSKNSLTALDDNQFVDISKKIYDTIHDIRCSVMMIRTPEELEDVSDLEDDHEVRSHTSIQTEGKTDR

[2] = molecular target: T2, αT-catenin head (1–659)–β-catenin complex (Mus musculus, UniProt Q65CL1 1-659; Q02248 1-781)
T2 construct: αT-catenin, Mus musculus, head region, aa 1-659; β-catenin, Mus musculus, full length; also called αT-catenin head–β-catenin complex; source: E. coli BL21-Gold, purified; purified complex
T2 sequence (looked up) 1: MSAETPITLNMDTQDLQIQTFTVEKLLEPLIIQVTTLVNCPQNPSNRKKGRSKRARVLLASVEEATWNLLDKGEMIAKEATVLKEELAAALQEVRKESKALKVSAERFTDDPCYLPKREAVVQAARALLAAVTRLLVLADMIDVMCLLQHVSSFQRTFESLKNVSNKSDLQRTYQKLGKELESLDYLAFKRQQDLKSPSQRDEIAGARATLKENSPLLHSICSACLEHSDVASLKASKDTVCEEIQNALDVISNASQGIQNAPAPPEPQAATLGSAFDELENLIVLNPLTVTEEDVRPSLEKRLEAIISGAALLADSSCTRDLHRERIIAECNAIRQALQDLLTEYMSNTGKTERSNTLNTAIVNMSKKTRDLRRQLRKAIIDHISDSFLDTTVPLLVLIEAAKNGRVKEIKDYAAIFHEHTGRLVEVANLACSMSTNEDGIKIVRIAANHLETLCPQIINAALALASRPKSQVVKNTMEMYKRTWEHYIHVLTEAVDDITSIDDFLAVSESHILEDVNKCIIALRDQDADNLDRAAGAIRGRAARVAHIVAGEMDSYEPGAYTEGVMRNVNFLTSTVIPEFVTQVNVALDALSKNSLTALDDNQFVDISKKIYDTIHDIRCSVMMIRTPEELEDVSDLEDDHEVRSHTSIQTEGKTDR
T2 sequence (looked up) 2: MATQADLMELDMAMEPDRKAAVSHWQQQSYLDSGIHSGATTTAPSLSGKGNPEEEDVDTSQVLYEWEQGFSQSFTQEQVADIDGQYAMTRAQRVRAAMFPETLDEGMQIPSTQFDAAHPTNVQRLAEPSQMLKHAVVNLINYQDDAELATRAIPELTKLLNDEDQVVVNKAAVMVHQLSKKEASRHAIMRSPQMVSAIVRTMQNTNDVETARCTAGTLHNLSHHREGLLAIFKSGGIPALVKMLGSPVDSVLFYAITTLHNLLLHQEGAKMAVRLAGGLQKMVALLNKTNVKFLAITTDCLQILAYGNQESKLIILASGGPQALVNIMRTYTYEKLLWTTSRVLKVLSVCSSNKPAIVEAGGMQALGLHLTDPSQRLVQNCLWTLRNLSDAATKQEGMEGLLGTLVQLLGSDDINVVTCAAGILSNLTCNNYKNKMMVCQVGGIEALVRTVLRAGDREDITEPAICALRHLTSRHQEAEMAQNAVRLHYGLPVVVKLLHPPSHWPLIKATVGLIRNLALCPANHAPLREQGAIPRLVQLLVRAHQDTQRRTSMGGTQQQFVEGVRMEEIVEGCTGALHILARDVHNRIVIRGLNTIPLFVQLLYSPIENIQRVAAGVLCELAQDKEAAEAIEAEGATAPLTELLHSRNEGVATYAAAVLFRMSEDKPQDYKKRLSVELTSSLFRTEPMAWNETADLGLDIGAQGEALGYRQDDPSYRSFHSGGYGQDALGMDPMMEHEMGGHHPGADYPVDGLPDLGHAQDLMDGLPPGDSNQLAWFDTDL

[3] = molecular target: T3, αT-catenin M1-M3 (aa 260–626) (Mus musculus, UniProt Q65CL1 260-626)
T3 construct: αT-catenin, Mus musculus, M1-M3, aa 260-626; in pGEX-TEV; also called αT-catenin M-region; αT-catenin M1-M3 (260–626); source: E. coli BL21-Gold, purified (glutathione-agarose, TEV cleavage, Mono Q or Mono S, S200)
T3 sequence (looked up): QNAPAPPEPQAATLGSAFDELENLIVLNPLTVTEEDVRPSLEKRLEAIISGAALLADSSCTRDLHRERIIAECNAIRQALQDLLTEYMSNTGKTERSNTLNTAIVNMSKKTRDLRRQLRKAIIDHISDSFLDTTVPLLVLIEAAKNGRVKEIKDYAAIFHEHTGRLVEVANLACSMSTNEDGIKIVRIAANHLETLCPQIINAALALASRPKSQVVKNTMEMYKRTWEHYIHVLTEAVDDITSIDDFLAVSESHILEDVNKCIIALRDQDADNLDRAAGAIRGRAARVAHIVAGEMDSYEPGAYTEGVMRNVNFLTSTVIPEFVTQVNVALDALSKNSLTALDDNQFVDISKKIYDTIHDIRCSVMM

[4] = molecular target: T4, αE-catenin M1-M2 (aa 273–510) (Mus musculus, UniProt P26231 273-510)
T4 construct: αE-catenin, Mus musculus, M1-M2, aa 273-510; in pGEX-TEV; also called αE-catenin M1-M2 (273–510); source: E. coli BL21-Gold, purified (glutathione-agarose, TEV cleavage, Mono Q or Mono S, S200)
T4 sequence (looked up): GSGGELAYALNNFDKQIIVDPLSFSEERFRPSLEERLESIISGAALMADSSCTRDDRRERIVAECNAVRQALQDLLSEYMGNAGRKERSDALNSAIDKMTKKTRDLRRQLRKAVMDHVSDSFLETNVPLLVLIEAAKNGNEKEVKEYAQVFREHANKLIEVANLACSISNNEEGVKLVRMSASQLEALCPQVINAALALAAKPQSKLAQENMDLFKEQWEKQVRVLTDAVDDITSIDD

Kd [1]: 4690 ± 2740 nM
dH [1]: 2.3 ± 1.3 kcal/mol
Kd [2]: 2770 ± 875 nM
dH [2]: 4.4 ± 0.6 kcal/mol
Kd [3]: 60.5 ± 19.2 nM
dH [3]: -2.2 ± 1 kcal/mol
dH [4]: 8.7 ± 0.2 kcal/mol
B1: vinculin D1 (aa 1–259) (domain or fragment, UniProt P12003 1-259, looked up)
chain: MPVFHTRTIESILEPVAQQISHLVIMHEEGEVDGKAIPDLTAPVSAVQAAVSNLVRVGKETVQTTEDQILKRDMPPAFIKVENACTKLVRAAQMLQADPYSVPARDYLIDGSRGILSGTSDLLLTFDEAEVRKIIRVCKGILEYLTVAEVVETMEDLVTYTKNLGPGMTKMAKMIDERQQELTHQEHRVMLVNSMNTVKELLPVLISAMKIFVTTKNTKSQGIEEALKNRNFTVEKMSAEINEIIRVLQLTSWDEDAWA
notes: vinculin D1 fragment, aa 1-259, the first 2 four-helix bundles; in pGEX-TEV; also called vinculin aa 1 to 259 (D1); vinculin N-terminus; source: E. coli BL21-Gold, purified (glutathione-agarose, TEV cleavage, Mono Q or Mono S, S200)
